This is an account of results in the supplement of paper PMC10567573.

To fix the notation:
B1: USP39 (parent)
chain: FVEKNPTIVNFPITNVDLREYLSE
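Note: lentivirally expressed fusions sorted by FACS into six bins by GFP to DsRed ratio, PSI derived from sequencing read proportions per bin multiplied by bin number.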

Variants of B1 are the subject of the data set. Briefly: protein stability index of a GFP-peptide fusion (GPS, HEK-293T) (PSI 1-6); higher = more stable. Conditions: c terminus: a fixed tail appended.
In the case of FVEKEPTIVNFPITNVDLREYLSE [N5E], the protein stability index is 1.91.
The same measure for FVEKMPTIVNFPITNVDLREYLSE [N5M]: 2.15; for FVEKAPTIVNFPITNVDLREYLSE [N5A]: 1.35.
Turning to FVEKPPTIVNFPITNVDLREYLSE [N5P], the protein stability index came to 1.67.
As for FVEKDPTIVNFPITNVDLREYLSE [N5D], the protein stability index was found to be 2.74.
Next, FVEKIPTIVNFPITNVDLREYLSE [N5I]: 1.58; FVEKGPTIVNFPITNVDLREYLSE [N5G]: 1.51; FVEKQPTIVNFPITNVDLREYLSE [N5Q]: 2.55.
In the case of FVEKSPTIVNFPITNVDLREYLSE [N5S], the protein stability index is 2.08.
Regarding FVEKCPTIVNFPITNVDLREYLSE [N5C], the protein stability index turned out to be 1.44.
Consider FVEKKPTIVNFPITNVDLREYLSE [N5K], for which the protein stability index turned out to be 2.74.
The same measure for FVEKHPTIVNFPITNVDLREYLSE [N5H]: 1.96; for FVEKRPTIVNFPITNVDLREYLSE [N5R]: 1.94.
The same measure for FVEKLPTIVNFPITNVDLREYLSE [N5L]: 2.63.
For the variant FVEKVPTIVNFPITNVDLREYLSE [N5V], the protein stability index came to 2.05.
Next, FVEKTPTIVNFPITNVDLREYLSE [N5T]: 2.37.
Next, FVEKYPTIVNFPITNVDLREYLSE [N5Y]: 2.83; FHEKNPTIVNFPITNVDLREYLSE [V2H]: 2.94; FNEKNPTIVNFPITNVDLREYLSE [V2N]: 3.68.
Next, FGEKNPTIVNFPITNVDLREYLSE [V2G]: 3.51; FDEKNPTIVNFPITNVDLREYLSE [V2D]: 3.79.
FFEKNPTIVNFPITNVDLREYLSE [V2F]: the protein stability index came out at 2.74.
Take FYEKNPTIVNFPITNVDLREYLSE [V2Y]: the protein stability index came to 2.62.
Next, FMEKNPTIVNFPITNVDLREYLSE [V2M]: 3.36; FLEKNPTIVNFPITNVDLREYLSE [V2L]: 2.43.
For the variant FKEKNPTIVNFPITNVDLREYLSE [V2K], the protein stability index was determined as 3.26.
The same measure for FTEKNPTIVNFPITNVDLREYLSE [V2T]: 3.2; for FIEKNPTIVNFPITNVDLREYLSE [V2I]: 2.3.
The same measure for FPEKNPTIVNFPITNVDLREYLSE [V2P]: 2.96.
Take FREKNPTIVNFPITNVDLREYLSE [V2R]: the protein stability index was determined as 3.84.
Take FQEKNPTIVNFPITNVDLREYLSE [V2Q]: the protein stability index was 2.81.
FCEKNPTIVNFPITNVDLREYLSE [V2C]: the protein stability index came to 2.94.
Take FAEKNPTIVNFPITNVDLREYLSE [V2A]: the protein stability index stood at 2.75.
Next, FSEKNPTIVNFPITNVDLREYLSE [V2S]: 3.02; FEEKNPTIVNFPITNVDLREYLSE [V2E]: 3.88.
In the case of FWEKNPTIVNFPITNVDLREYLSE [V2W], the protein stability index is 2.81.
FVEKNPQIVNFPITNVDLREYLSE [T7Q]: the protein stability index was 1.81.
Next, FVEKNPEIVNFPITNVDLREYLSE [T7E]: 2; FVEKNPDIVNFPITNVDLREYLSE [T7D]: 2.15.
The same measure for FVEKNPPIVNFPITNVDLREYLSE [T7P]: 1.55; for FVEKNPLIVNFPITNVDLREYLSE [T7L]: 2.02.
For FVEKNPKIVNFPITNVDLREYLSE [T7K], the protein stability index was determined as 1.74.
The same measure for FVEKNPNIVNFPITNVDLREYLSE [T7N]: 2.39; for FVEKNPHIVNFPITNVDLREYLSE [T7H]: 1.69.
On to FVEKNPAIVNFPITNVDLREYLSE [T7A], for which the protein stability index amounted to 1.8.
FVEKNPFIVNFPITNVDLREYLSE [T7F]: the protein stability index is 1.8.
In the case of FVEYNPTIVNFPITNVDLREYLSE [K4Y], the protein stability index was 2.32.
Next, FVEMNPTIVNFPITNVDLREYLSE [K4M]: 1.54; FVESNPTIVNFPITNVDLREYLSE [K4S]: 2.52.
The same measure for FVEFNPTIVNFPITNVDLREYLSE [K4F]: 1.14; for FVEDNPTIVNFPITNVDLREYLSE [K4D]: 2.85; for FVERNPTIVNFPITNVDLREYLSE [K4R]: 1.9.
The same measure for FVEINPTIVNFPITNVDLREYLSE [K4I]: 1.07; for FVEQNPTIVNFPITNVDLREYLSE [K4Q]: 2.61.
With FVEENPTIVNFPITNVDLREYLSE [K4E], the protein stability index was 2.47.
Next, FVEHNPTIVNFPITNVDLREYLSE [K4H]: 2.03; FVENNPTIVNFPITNVDLREYLSE [K4N]: 2.05; FVEVNPTIVNFPITNVDLREYLSE [K4V]: 1.81.
Take FVETNPTIVNFPITNVDLREYLSE [K4T]: the protein stability index was found to be 2.29.
Next, FVEGNPTIVNFPITNVDLREYLSE [K4G]: 2.11; FVEPNPTIVNFPITNVDLREYLSE [K4P]: 1.61.
Next, FVECNPTIVNFPITNVDLREYLSE [K4C]: 1.42.
Regarding FVEWNPTIVNFPITNVDLREYLSE [K4W], the protein stability index is 1.24.
The same measure for FVELNPTIVNFPITNVDLREYLSE [K4L]: 2.45; for FVEANPTIVNFPITNVDLREYLSE [K4A]: 1.74; for CVEKNPTIVNFPITNVDLREYLSE [F1C]: 2.87.
The same measure for IVEKNPTIVNFPITNVDLREYLSE [F1I]: 3.4; for SVEKNPTIVNFPITNVDLREYLSE [F1S]: 4.11.
QVEKNPTIVNFPITNVDLREYLSE [F1Q]: the protein stability index turned out to be 3.71.
The same measure for YVEKNPTIVNFPITNVDLREYLSE [F1Y]: 1.99; for HVEKNPTIVNFPITNVDLREYLSE [F1H]: 4.01; for WVEKNPTIVNFPITNVDLREYLSE [F1W]: 2.49.
Next, NVEKNPTIVNFPITNVDLREYLSE [F1N]: 4.08.
Next, DVEKNPTIVNFPITNVDLREYLSE [F1D]: 4.5.
In the case of LVEKNPTIVNFPITNVDLREYLSE [F1L], the protein stability index came out at 3.95.
On to KVEKNPTIVNFPITNVDLREYLSE [F1K], for which the protein stability index was 4.34.
The same measure for MVEKNPTIVNFPITNVDLREYLSE [F1M]: 3.36; for VVEKNPTIVNFPITNVDLREYLSE [F1V]: 3.89; for EVEKNPTIVNFPITNVDLREYLSE [F1E]: 4.26.
The same measure for PVEKNPTIVNFPITNVDLREYLSE [F1P]: 3.85; for TVEKNPTIVNFPITNVDLREYLSE [F1T]: 3.87; for RVEKNPTIVNFPITNVDLREYLSE [F1R]: 3.78.
Next, AVEKNPTIVNFPITNVDLREYLSE [F1A]: 3.59; GVEKNPTIVNFPITNVDLREYLSE [F1G]: 3.26; FVGKNPTIVNFPITNVDLREYLSE [E3G]: 1.66.
On to FVIKNPTIVNFPITNVDLREYLSE [E3I], for which the protein stability index was 1.85.
Turning to FVRKNPTIVNFPITNVDLREYLSE [E3R], the protein stability index stood at 1.38.
Turning to FVDKNPTIVNFPITNVDLREYLSE [E3D], the protein stability index came to 1.95.
Next, FVNKNPTIVNFPITNVDLREYLSE [E3N]: 1.85; FVFKNPTIVNFPITNVDLREYLSE [E3F]: 2.57; FVQKNPTIVNFPITNVDLREYLSE [E3Q]: 1.58.
Next, FVHKNPTIVNFPITNVDLREYLSE [E3H]: 1.83; FVTKNPTIVNFPITNVDLREYLSE [E3T]: 1.15; FVCKNPTIVNFPITNVDLREYLSE [E3C]: 1.52.
As to FVKKNPTIVNFPITNVDLREYLSE [E3K], the protein stability index worked out at 1.94.
